In patent US20110124071A1, “METHODS AND COMPOSITIONS FOR PRODUCING HYDROCARBONS” (priority 2009, published 2011):
Read-outs that look alike come from different tables or passages of the source.

Assays:
[1] = biological target: T1, PCC7942_orf1594 protein (Synechococcus elongatus, UniProt Q54765); assay: acyl-ACP or acyl-CoA reductase enzyme assay, GC/MS; assay type: biochemical
T1 construct: His-tag (C); made in house; host or cells: E. coli BL21 (DE3)
T1 sequence (Q54765 1-341): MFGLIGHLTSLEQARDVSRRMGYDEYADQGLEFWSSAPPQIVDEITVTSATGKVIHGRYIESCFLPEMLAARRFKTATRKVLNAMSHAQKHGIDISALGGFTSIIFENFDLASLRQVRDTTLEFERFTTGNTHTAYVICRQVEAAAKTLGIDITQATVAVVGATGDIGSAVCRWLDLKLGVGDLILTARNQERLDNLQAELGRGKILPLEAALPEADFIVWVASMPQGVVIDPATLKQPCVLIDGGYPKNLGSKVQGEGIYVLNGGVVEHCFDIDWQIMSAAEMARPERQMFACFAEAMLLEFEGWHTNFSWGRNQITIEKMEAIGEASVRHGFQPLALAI
Experimental: The genomic DNA encoding S. elongatus PCC7492 orf1594 (SEQ ID NO: 66) was cloned into the NcoI and XhoI sites of vector pET-28b under the control of the T7 promoter. The resulting PCC7942_orf1594 protein contained a C-terminal His-tag. An E. coli BL21 strain (DE3) (Invitrogen) was transformed with the plasmid and PCC7942_orf1594 protein was expressed and purified as described in Example 22. The protein solution was stored in the following buffer: 50 mM sodium phosphate, pH 7.5, 100 mM NaCl, 1 mM THP, 10% glycerol. Protein concentration was determined using the Bradford assay (Bio-Rad). 2 mg/ml of PCC7942 orf1594 protein was obtained.
To test PCC7942_orf1594 protein for acyl-ACP or acyl-CoA reductase activity, the following enzyme assays were set-up. 100 μl reactions were set-up in 50 mM Tris-HCl buffer at pH 7.5 with the following components at their respective final concentrations: 10 μM of purified PCC7942_orf1594 protein, 0.01-1 mM acyl-CoA or acyl-ACP, 2 mM MgCl2, 0.2-2 mM NADPH. The reactions were incubated for 1 h at 37° C. and where stopped by adding 100 μl ethyl acetate (containing 5 mg/l 1-octadecene as internal standard). Samples were vortexed for 15 min and centrifuged at max speed for 3 min for phase separation. 80 μl of the top layer were transferred into GC glass vials and analyzed by GC/MS as described in Example 26. The amount of aldehyde formed was calculated based on the internal standard.

[2] = test system: E. coli MG1655; assay: Heterologous expression of putative aldehyde-generating enzyme alone in E. coli, GC-MS of extracts; assay type: cell-based; conditions: enzyme expressed alone in E. coli MG1655, M9 minimal media, 37° C.
Experimental: (§1) The genomic DNA encoding Synechococcus elongatus PCC7942 orf1594 (YP—400611; putative aldehyde-generating enzyme) (SEQ ID NO: 65) was amplified and cloned into the NcoI and EcoRI sites of vector OP-80 (pCL1920 derivative) under the control of the Ptrc promoter. The resulting construct (“OP80-PCC7942—1594”) was transformed into E. coli MG1655 and the cells were grown at 37° C. in M9 minimal media with 1% (w/v) glucose as carbon source and supplemented with 100 μg/ml spectinomycin. When the culture reached OD600 of 0.8-1.0, it was induced with 1 mM IPTG and cells were grown for an additional 18-20 h at 37° C. Cells from 0.5 ml of culture were extracted with 0.5 ml of ethyl acetate. After sonication for 60 min, the sample was centrifuged at 15,000 rpm for 5 min. The solvent layer was analyzed by GC-MS as described in Example 1.
The genomic DNA encoding Cyanothece sp. ATCC51142 cce—1430 (YP—001802846; putative aldehyde-generating enzyme) (SEQ ID NO: 70) was amplified and cloned into the NcoI and EcoRI sites of vector OP-80 (pCL1920 derivative) under the control of the Ptrc promoter. The resulting construct was transformed into E. coli MG1655 and the cells were grown at 37° C. in M9 minimal media with 1% (w/v) glucose as carbon source and supplemented with 100 μg/ml spectinomycin. The cells were cultured and extracted as in Example 3 and analyzed by GC-MS as described in Example 26.
The genomic DNA encoding P. mariunus CCMP1986 PMM0533 (NP_892651; putative aldehyde-generating enzyme) (SEQ ID NO: 72) and Prochlorococcus mariunus CCMP1986 PMM0532 (NP_892650; putative decarbonylase) (SEQ ID NO: 19) were amplified and cloned into the NcoI and EcoRI sites of vector OP-80 and the NdeI and XhoI sites of vector OP-183, respectively. The resulting constructs were separately transformed and cotransformed into E. coli MG1655 and the cells were grown at 37° C. in M9 minimal media supplemented with 100 μg/ml spectinomycin and 100 μg/ml carbenicillin. The cells were cultured and extracted as in Example 3 and analyzed by GC-MS as described in Example 26.

[3] = test system: E. coli MG1655; assay: Coexpression of putative decarbonylase with S. elongatus PCC7942 orf1594 in E. coli, GC-MS of extracts; assay type: cell-based; conditions: coexpressed with S. elongatus PCC7942 orf1594 in E. coli MG1655, M9 minimal media
Experimental: After a 1 μl splitless injection (inlet temperature held at 300° C.) onto the GC/MS column, the oven was held at 100° C. for 3 mins. The temperature was ramped up to 320° C. at a rate of 20° C./min. The oven was held at 320° C. for an additional 5 min. The flow rate of the carrier gas helium was 1.3 ml/min. The MS quadrapole scanned from 50 to 550 m/z. Retention times and fragmentation patterns of product peaks were compared with authentic references to confirm peak identity.
as §1
The genomic DNA encoding Synechococcus elongatus PCC7942 orf1593 (YP—400610; putative decarbonylase) (SEQ ID NO: 1) was amplified and cloned into the NdeI and XhoI sites of vector OP-183 (pACYC derivative) under the control of the Ptrc promoter. The resulting construct was cotransformed with OP80-PCC7942—1594 into E. coli MG1655 and the cells were grown at 37° C. in M9 minimal media supplemented with 100 μg/ml spectinomycin and 100 μg/ml carbenicillin. The cells were cultured and extracted as in Example 3 and analyzed by GC-MS as described in Example 1. […]

[4] = test system: E. coli MG1655 ΔfadE lacZ::Ptrc ′tesA-fadD; assay: Heterologous expression in a fatty acyl-CoA-producing E. coli strain, GC-MS; assay type: cell-based; conditions: for conversion of fatty aldehydes into alkanes/alkenes: decarbonylase coexpressed with acyl-ACP reductase in acyl-CoA-producing strain
Excerpt: The genomic DNA encoding Acaryochloris marina MBIC11017 AM1—4041 (YP—001518340; putative fatty aldehyde decarbonylase) (SEQ ID NO: 9) was synthesized and cloned into the NdeI and XhoI sites of vector OP-183 (pACYC derivative) under the control of the Ptrc promoter. The resulting construct was cotransformed with OP80-PCC7942—1594 into E. coli MG1655 ΔfadE lacZ::Ptrc ′tesA-fadD. This strain expresses a cytoplasmic version of the E. coli thioesterase, ′TesA, and the E. coli acyl-CoA synthetase, FadD, under the control of the Ptrc promoter, and therefore produces fatty acyl-CoAs. The cells were grown at 37° C. in M9 minimal media supplemented with 100 μg/ml spectinomycin and 100 μg/ml carbenicillin. The cells were cultured and extracted as in Example 3 and analyzed by GC-MS as described in Example 1.
The genomic DNA encoding Synechocystis sp. PCC6803 sll0208 (NP_442147; putative fatty aldehyde decarbonylase) (SEQ ID NO: 3) was synthesized and cloned into the NdeI and XhoI sites of vector OP-183 (pACYC derivative) under the control of the Ptrc promoter. The genomic DNA encoding Synechocystis sp. PCC6803 sll0209 (NP_442146; acyl-ACP reductase) (SEQ ID NO: 68) was synthesized and cloned into the NcoI and EcoRI sites of vector OP-183 (pACYC derivative) under the control of the Ptrc promoter. The resulting constructs were cotransformed with into E. coli MG1655 ΔfadE lacZ::Ptrc ′tesA-fadD. This strain expresses a cytoplasmic version of the E. coli thioesterase, ′TesA, and the E. coli acyl-CoA synthetase, FadD, under the control of the Ptrc promoter, and therefore produces fatty acyl-CoAs. The cells were grown at 37° C. in M9 minimal media supplemented with 100 μg/ml spectinomycin and 100 μg/ml carbenicillin. The cells were cultured and extracted as in Example 3 and analyzed by GC-MS as described in Example 26.

[5] = test system: E. coli MG1655 ΔfadD lacZ::Ptrc-′tesA; assay: Heterologous expression in a fatty aldehyde-producing E. coli strain with MSMEG—5739, GC-MS; assay type: cell-based; conditions: decarbonylase coexpressed with carboxylic acid reductase MSMEG—5739
[6] = in the presence of 2 mM NADPH, read-out: Km for the reduction by PCC7942_orf1594

NC(=O)C1=CN([C@@H]2O[C@H](COP(=O)(O)OP(=O)(O)OC[C@H]3O[C@@H](n4cnc5c(N)ncnc54)[C@H](OP(=O)(O)O)[C@@H]3O)[C@@H](O)[C@H]2O)C=CC1 [NADPH]
Km ([1]; in the presence of 0.5 mM octadecanoyl-CoA, read-out: Km value for NADPH for PCC7942_orf1594): 400 ± 80 µM

NC(=O)C1=CN([C@@H]2O[C@H](COP(=O)(O)OP(=O)(O)OC[C@H]3O[C@@H](n4cnc5c(N)ncnc54)[C@H](O)[C@@H]3O)[C@@H](O)[C@H]2O)C=CC1 [NADH]
support of reductase activity as electron donor ([1]; reduction of octadecanoyl-CoA to octadecanal): did not support reductase activity

octadecenoyl-CoA
Km [1, 6]: 82 ± 22 µM

B1: ATCC51142 cce—1430: Cyanothece sp. ATCC51142 putative aldehyde-generating enzyme, Acyl-ACP reductase (SEQ ID NO: 70) (protein, listed as Cyanothece sp.)
chain: MFGLIGHLTSLEHAHSVADAFGYGPYATQGLDLWCSAPPQFVEHFHVTSITGQTIEGKYIESAFLPEMLIKRRIKAAIRKILNAMAFAQKNNLNITALGGFSSIIFEEFNLKENRQVRNVSLEFDRFTTGNTHTAYIICRQVEQASAKLGIDLSQATVAICGATGDIGSAVCRWLDRKTDTQELFLIARNKERLQRLQDELGRGKIMGLEEALPEADIIVWVASMPKGVEINAETLKKPCLIIDGGYPKNLDTKIKHPDVHILKGGIVEHSLDIDWKIMETVNMDVPSRQMFACFAEAILLEFEQWHTNFSWGRNQITVTKMEQIGEASVKHGLQPLLSW
production of fatty aldehydes and fatty alcohols [2]: generates aldehydes in vivo

B2: AM1—4041: Acaryochloris marina MBIC11017 putative decarbonylase (SEQ ID NO: 9) (protein, listed as Acaryochloris marina)
chain: MPQTQAISEIDFYSDTYKDAYSRIDGIVIEGEQEAHENYIRLGEMLPEHQDDFIRLSKMEARHKKGFEACGRNLKVTCDLDFARRFFSDLHKNFQDAAAEDKVPTCLVIQSLIIECFAIAAYNIYIPVADDFARKITESVVKDEYQHLNYGEEWLKAHFDDVKAEIQEANRKNLPIVWRMLNEVDKDAAVLGMEKEALVEDFMIQYGEALSNIGFSTGEIMRMSAYGLVAA
fatty aldehyde decarbonylase activity (alkane/alkene production) [3]: active fatty aldehyde decarbonylase
conversion of fatty aldehydes into alkanes/alkenes [4]: converted into pentadecene, pentadecane and heptadecene
conversion of fatty aldehydes provided by MSMEG—5739 to alkanes [5]: converted fatty aldehydes provided by MSMEG—5739 to the corresponding alkanes

B3: Synechocystis sp. PCC6803 sll0209: Synechocystis sp. PCC6803 acyl-ACP reductase (SEQ ID NO: 68) (protein, listed as Synechocystis sp.)
chain: MFGLIGHLTSLEHAQAVAEDLGYPEYANQGLDFWCSAPPQVVDNFQVKSVTGQVIEGKYVESCFLPEMLTQRRIKAAIRKILNAMALAQKVGLDITALGGFSSIVFEEFNLKQNNQVRNVELDFQRFTTGNTHTAYVICRQVESGAKQLGIDLSQATVAVCGATGDIGSAVCRWLDSKHQVKELLLIARNRQRLENLQEELGRGKIMDLETALPQADIIVWVASMPKGVEIAGEMLKKPCLIVDGGYPKNLDTRVKADGVHILKGGIVEHSLDITWEIMKIVEMDIPSRQMFACFAEAILLEFEGWRTNFSWGRNQISVNKMEAIGEASVKHGFCPLVAL
use of acyl-CoA as substrate to produce fatty aldehydes ([4]; reductase coexpressed with a fatty aldehyde decarbonylase): able to use acyl-CoA as a substrate
production of fatty aldehydes or fatty alcohols ([4]; reductase expressed alone in acyl-CoA-producing strain): did not produce any fatty aldehydes or fatty alcohols

B4: Synechocystis sp. PCC6803 sll0208: Synechocystis sp. PCC6803 putative fatty aldehyde decarbonylase (SEQ ID NO: 3) (protein, listed as Synechocystis sp.)
chain: MPELAVRTEFDYSSEIYKDAYSRINAIVIEGEQEAYSNYLQMAELLPEDKEELTRLAKMENRHKKGFQACGNNLQVNPDMPYAQEFFAGLHGNFQHAFSEGKVVTCLLIQALIIEAFAIAAYNIYIPVADDFARKITEGVVKDEYTHLNYGEEWLKANFATAKEELEQANKENLPLVWKMLNQVQGDAKVLGMEKEALVEDFMISYGEALSNIGFSTREIMRMSSYGLAGV
conversion of fatty aldehydes into alkanes/alkenes [4]: octadecenal was converted into heptadecene

B5: octadecenoyl-ACP (conjugate, UniProt Q31QV1 1-80, looked up)
Acyl carrier protein: MSQEDIFSKVKDIVAEQLSVDVAEVKPESSFQNDLGADSLDTVELVMALEEAFDIEIPDEAAEGIATVQDAVDFIASKAA
modifications: octadecenoyl acyl thioester
notes: acyl-ACP (acyl carrier protein) substrate of PCC7942_orf1594 reductase
Km [1, 6]: 7.8 ± 2 µM
